# Experiment: soluble on expression in E. coli; label from the status in PepcDB or PDB records
row,Sequence,soluble on expression in E. coli
1,MPAPLSIVIPTLQAESSLPRLLEALIEGLPNGLIREVIVSDGGSQDATRAIAEAAGAQVLNGPPSRGGQLRHGCDAARGDWLLVLHADTLPDPGWAGVVADHIAAREDAACFRLAFRARGPGAAWVAGWANLRTRLFGLPYGDQGLLIRRRDYQTAGGYPDQLLMEDVHLVRALSRAPVLLPHRALTGAERYLRSGWLRRGARNLWTLMRYFAGTDPEALARAYRRLEHHHHHH,not soluble
2,MPASEQGFWRGMETCGWGGGSYILYAWARNAPNLVLPKDVAFSVGHEQDGIKYFVLQVHYAQPFAGEVHDFSGVTMHISQKKPMNLAAVMLFVSGTPIPPQLPAFQNNITCMFESSTPIHPFAFRTHTHAMGRLVSAFFKHDGHWTKIGKRNPQWPQLFEGIPSKLMIGSGDQMSASCRFDSMDKNRTVNMGAMGVDEMCNFYMMFHYDAKLDNPYPQGAICAKDYPSKMIDYPKDGFELLPSRPELEHHAHQSKVPFGIVQEAIHENLGGVKLGQVAGLAFNNEQQLLVFQRAGRVWDASTFDNYNILLDKKPIADPVILVISYSGNQTKLERKLGGGQFYLPHGIYVDKDGFVYTTDVGSHTVAKWKIEGNELKNIWTSGELLMPGSDQHHYCKPTGITRVEDQLYVTDGYCNSRVVVLDLNGKRIRQFGLPGEDAGQFNLPHDIVSDSAGRLLVTDRENGRVQHMTTQGHVIEEFKSTMFTNIYSAASHEDYVFMVPGRPIMGHETEGIAVFVGRSGTGLIEYAFGPTTKGKREQMGPQFGQPHCLRVCPDGGHIFVGDIAEGKARLWQFKVNLLEMCGSKYDMIKIKLMILP,not soluble
3,MPDADVNDFELVDVDQKAADKAIKDLGVKATIDEVCTVGEEGYVVTATDKEGYGGDIKITVGITADGTINGISILSISETAGLGMRATEPAFYEQYQGKQAEKFVVSKDGGDGEPIDALSGATITSRAVTGAVNAALGYYQNAFLEHHHHHH,soluble
4,MPDAVYVFTPKGHIRALPRGATALDFAYAVHSDLGNQCVAVKINNELLPLRTELKSGDIVEVVTAPYSKLEHHHHHH,not soluble
5,MPDFKIVISDPQSVEPKRIKVKVKASDQVKSITGEKDGKAVPQAKVNEKTKQLLNVDTLLTLEITKQEGDKKVKVKGHFKVDVDNSVPDNEVWISKTMAEKFGAEDFEAFAYRTKTLQISVDQNKATNLVGLKIGDVFEANQLIGLPVKLKITGGSDNSGFPMRFDVIGAAKRKILLSGPPGFYPNENGERRRKTIRGNTISQEIVQINTIIVRLEHHHHHH,soluble
6,MPDGAQIQGLRPNGQSMEADMKLAVVTGQIVCTVRHQGLAHDKLLMVEMIDAQGNPDGQCAVAIDSIGAGTGEWVLLVSGSSARQAHRSELSPVDLCVIGIVDEVVAGGKVVFHKLEHHHHHH,not soluble
7,MPEFVQYVGGHFEEVGKEFMQYFIEIGNLKSNETVLDVGCGIGRMAVPLMNYLSDDGTYYGFDLFNKGITWCKNNISTRRNNFHFEHVDIYNQFYNPDGKEDASQYKFPYEDESFDFIFLTSVFTHLLPKELEHYVREIARVLKKDGRCFITFFLINPESSYYLNAGLSPLGFYHQIDNCYVLNKDIPNFAVAYPEEDIRTLLNKYGLEMQTPPHYGSWCGRTEHTSYQDIILAQKLEHHHHHH,soluble
8,MPELKVVVSIKQVPDVDELRIDPVTNNLVREGVPAVINPPDLHAIEEAVRLKERYGAKTIVITMGPPQADSALREALAMGIDEAYLISDRAMAGADTWATSYTISKAVQKLGGADLILFGRRAVDGETEQVGPQTGKWLGLPVIGYVSEIKSLEKDKIVVTRTTEFDEEVIEAPVPVVLTILEVANKPRQPDILSLIKAKTAKVTVWNKDDIKAEPNKIGLAGSPTKVIKVQPPPKTRKAEIIDGKKDVEKAAKWFLDKIFESLKE,not soluble
9,MPFIECHIATGLSVARKQQLIRDVIDVTNKSIGSDPKIINVLLVEHAEANMSISGRIHGEAASTERTPAVS,soluble
10,MPFPVTTQGSQQTQPPQKHYGITSPISLAAPKETDCLLTQKLVETLKPFGVFEEEEELQRRILILGKLNNLVKEWIREISESKNLPQSVIENVGGKIFTFGSYRLGVHTKGADIDALCVAPRHVDRSDFFTSFYDKLKLQEEVKDLRAVEEAFVPVIKLCFDGIEIDILFARLALQTIPEDLDLRDDSLLKNLDIRCIRSLNGCRVTDEILHLVPNIDNFRLTLRAIKLWAKRHNIYSNILGFLGGVSWAMLVARTCQLYPNAIASTLVHKFFLVFSKWEWPNPVLLKQPEECNLNLPVWDPRVNPSDRYHLMPIITPAYPQQNSTYNVSVSTRMVMVEEFKQGLAITDEILLSKAEWSKLFEAPNFFQKYKHYIVLLASAPTEKQRLEWVGLVESKIRILVGSLEKNEFITLAHVNPQSFPAPKENPDKEEFRTMWVIGLVFKKTENSENLSVDLTYDIQSFTDTVYRQAINSKMFEVDMKIAAMHVKRKQLHQLLPSHVLQKKKKHSTEGV,soluble
11,MPGELLGAHYGHCFGCGEEQSHGLHLAARAGQGVSITAEFTVQPAHQGAPGLAHGGVLATALDETLGSLNWLLRTIAVTGRLETDFVRPVPVGTVLYLEAEVTAVAGRKIYSTATGRIGGPEGPVAVRADALFVEVKVDHFTDNGRQEEIRAAMNDPDQLRRARAFEVNPLEHHHHHH,not soluble
12,MPGIDKLPIEETLEDSPQTRSLLGVFEEDATAISNYMNQLYQAMHRIYDAQNELSAATHLTSKLLKEYEKQRFPLGGDDEVMSSTLQQFSKVIDELSSCHAVLSTQLADAMMFPITQFKERDLKEILTLKEVFQIASNDHDAAINRYSRLSKKRENDKVKYEVTEDVYTSRKKQHQTMMHYFCALNTLQYKKKIALLEPLLGYMQAQISFFKMGSENLNEQLEEFLANIGTSVQNVRREMDSDIETMQQTIEDLEVASDPLYVPDPDPTKFPVNRNLTRKAGYLNARNKTGLVSSTWDRQFYFTQGGNLMSQARGDVAGGLAMDIDNCSVMAVDCEDRRYCFQITSFDGKKSSILQAESKKDHEEWICTINNISKQIYLSENPEETAARVNQSALEAVTPSPSFQQRHESLRPAAGQSRPPTARTSSSGSLGSESTNLAALSLDSLVAPDTPIQFDIISPVCEDQPGQAKAFGQGGRRTNPFGESGGSTKSETEDSILHQLFIVRFLGSMEVKSDDHPDVVYETMRQILAARAIHNIFRMTESHLLVTCDCLKLIDPQTQVTRLTFPLPCVVLYATHQENKRLFGFVLRTSSGRSESNLSSVCYIFESNNEGEKICDSVGLAKQIALHAELDRRASEKQ,not soluble
13,MPGINGAGPSNFFWQWRTDGEPVTEREHDSSRSASSANSPELPPPASPAESGRQRLLRSSALSRQTREWLEATPARVQGATPPAEARQSPEAQQAERIVQELVRGGADLNNVRTMLRNVMDNNAVAFSRVERDILLQHFPNMPMTGISSDSVLANELRQRLRQTVRQQRIQSSTPARLADSSSGSSQRSLIGRSTMLMTPGRSSSSSAAASRTSVDRHPQGLDLESARLASAARHNHSANQTNEALRRLTQEGVDMERLRTSLGRYIMSLEPLPPDLRRALESVGINPFIPEELSLVDHPVLNFSAALNRMLASRQTTTNSPELPPLASSAESGRRRLLRSPPLLSGQREWIEQSMRQEAEPQSSRLNRAVRLAVMPPQNENEDNVAYAIRLRRLNPGADVSRVVASFITDPAARQQVVNDIRAALDIAPQFSQLRTISKADAESEELGFRDAADHPDNATSCLFGEELSLSNPDQQVIGLAVNPTDKPQPYSQEVNKALTFMDMKKLAQYLADKPEHPLNRQRLDAKNIAKYAFKIVP,not soluble
14,MPGRKRKLAAKTAELAPEAGEGSESTSLVGSADASASTAAGVAHTEQQEMPSGGLHESFLESIPPAASFLEELAWVESLASPSYVAYLCQMRRFDDVVAQRRLTTLQRWRQDPAYRQHVSQPIALFFLEQLCSAEFREALRHPAVAALYERQVDLYRRCYGNLLNTGESRVLR,not soluble
15,MPHVICEPCIGVKDQSCVEVCPVECIYDGGDQFYIHPEECIDCGACVPACPVNAIYPEEDVPEQWKSYIEKNRKLAGLE,soluble
16,MPIDDNIIIADEAVIHPGDLHEDFIRSSGPGGQNVNKVATAVQLRFDAANAAGLSERVRARTIKLAGQRATKDGVIVIEAGRFRTQEQNRADARARLTALVAKAAEPPPPPRKKTRPSKGAVERRLKSKAGRGTIKKLRGRVGDDLEHHHHHH,soluble
17,MPIEIITDSGADLPQSYIREHRIAFLPLVVHWNGQDYKDGITIEPKQVYDAMRQGHTVKTAQPSPLAMKELFLPYAKENRPCLYIAFSSKLSGTYQTAMAVRSELLDEYPEFRLTIIDSKCASLGQGLAVMKAVELAKQNTPYNLLCETIESYCRHMEHIFTVDNLDYLARGGRISKTAAAFGGLLNIKPLLHVEDGALIPLEKWRGRKKVLKRMVELMGERGDDLQKQTIGISHADDEETALELKQMIEETHGCTRFFLSDIGSAIGAHAGPGTIALFFLNKYIEI,soluble
18,MPIKVGINGFGRIGRMVFQALCEDGLLGTEIDVVAVVDMNTDAEYFAYQMRYDTVHGKFKYEVTTTKSSPSVAKDDTLVVNGHRILCVKAQRNPADLPWGKLGVEYVIESTGLFTAKAAAEGHLRGGARKVVISAPASGGAKTLVMGVNHHEYNPSEHHVVSNASCTTNCLAPIVHVLVKEGFGVQTGLMTTIHSYTATQKTVDGVSVKDWRGGRAAAVNIIPSTTGAAKAVGMVIPSTQGKLTGMSFRVPTPDVSVVDLTFTAARDTSIQEIDAALKRASKTYMKGILGYTDEELVSADFINDNRSSIYDSKATLQNNLPKERRFFKIVSWYDNEWGYSHRVVDLVRHMASKDRSARL,soluble
19,MPIPLYLQDWWLDAVCGFDEWMAFVLEEEGTVSGVMPCYMPVPGHISMPPFTQFLGSYSFIGINEDSTTSFRAHRRVHDMLRSMLPPHKSFMVQYSKDFTDWLPYYWQGYSQTTRYTYRIDLSPGIDVVRMAIRPDAMKKIRKAERDGLRCTSATVDDLLRLCRISMSRQEAKGFAAETLQRLAEVAIERHAGEIVGCEDSEGRLLAAVFLAHDHNTAYTIASGQIREGQGRNAGAFVLYEAIWRACEMEGIHTFDFEGSMLEGIEGFFRSFGGIQTPYFRLSKGRIGLYGRLRRKWRAFHDTGQQKQV,not soluble
20,MPIRAARASLRRMDSDFLIIGGGIAGVSAAARLSELGSVTLLEAEDALAHHASSRSAALYEPRYGLPPVVELSLASGDFFRAADGILSPRGLLVVGREAEREQFEDETVGMHLERISAEEARAAVPILRPDVTLAARADHAWDIDTDRLLQGFAREARARGARIVTKARVGAIARDGAGWRVEAGESYRARILVNAAGAWADGVAALSGVRPLGLVPYRRSMARIPAPGGHDISRWPMIFGVGESWYAKPDAGALIVSPADEDPQEPHDAWADDMVLAEGLARYEEMVTEPVTRLLASWAGLRTFAPDRVLVIGEDPAAPGFFWLAGQGGYGFQTCPAASRLAADLIGGRSPEVPAALIAALSPDRFALEHHHHHH,not soluble
21,MPKIPITLITGFLGSGKTSFLSEYLNQTDHQGVALIINEIGQAALDQRILSVQYCGEKMLYLNAGCVCCNKRLDLVESLKATLNNYEWHGEILRRIIIETTGLANPAPILWTILSDTFLGVHFEIQSVVACVDALNAREHLTNNEAKEQIVFADSVLLTKTDLQNDSAALTKLKERIQALNPSAEIFDKRAIDYESLFSRKNRARNFMPRMPKDSHSQGFETLSINFEGTMEWSAFGIWLSLLLHQYGTQILRIKGIIDIGSGFLVSINGVMHVIYPPKHILKDQNGSNLVFIMRHLEREKILNSLKGFKDFLGIKGFETQLEHHHHHH,soluble
22,MPKLSAFYYQVLEDFGYIYDSSITVPPVPVPVWPYTLDYKISHECKSGTCPSRTFPGVWEVPLNTHYVEGYEGGHCPYLDQCVLHNLDEEEVFQWLQEDFSRYYEQNKAPYMMPFHTNWFQTKPLENGLHKFLDWALELLEHHHHHH,not soluble

# — the DeepSol protein solubility set
